Data set [1] concerns the target T1, EnfR wild-type (TON_1525) (Thermococcus onnurineus NA1, UniProt B6YTS4 1-146).
T1 sequence: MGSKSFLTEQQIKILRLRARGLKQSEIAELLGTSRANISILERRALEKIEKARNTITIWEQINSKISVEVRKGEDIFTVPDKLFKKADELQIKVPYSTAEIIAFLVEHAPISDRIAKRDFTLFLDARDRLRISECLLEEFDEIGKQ
The data set can be described thus: ITC; 25 C; N = 0.94; EMSA: 10 mM Tris pH 7.4, 200 mM KCl, 2 mM DTT, 0.2 mM EDTA, 37 C 20 min; ITC: 10 mM Tris-HCl pH 7.4, 200 mM KCl, 1 mM TCEP, 0.2 mM EDTA, 25 C; footprint: 20 mM. Particulars: protein: recombinant; tags: C-terminal His6, non-cleavable; chain copies: 2; blunt. A general note: ITC needs no label: the signal is the heat of the interaction.

Data set [2] deals with T2, EnfR T55I (Thermococcus onnurineus NA1, UniProt B6YTS4 1-146, T55I).
T2 sequence: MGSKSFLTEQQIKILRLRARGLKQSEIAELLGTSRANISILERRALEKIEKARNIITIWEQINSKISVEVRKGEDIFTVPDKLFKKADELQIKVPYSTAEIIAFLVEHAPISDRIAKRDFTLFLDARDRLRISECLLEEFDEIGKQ
The data set can be described thus: ITC; 25 C; N = 0.80; EMSA: 10 mM Tris pH 7.4, 200 mM KCl, 2 mM DTT, 0.2 mM EDTA, 37 C 20 min; ITC: 10 mM Tris-HCl pH 7.4, 200 mM KCl, 1 mM TCEP, 0.2 mM EDTA, 25 C; footprint: 20 mM. Particulars: protein: recombinant; tags: C-terminal His6, non-cleavable; chain copies: 2; blunt.

Data set [3] concerns the target T3, EnfR R44A (Thermococcus onnurineus NA1, UniProt B6YTS4 1-146, R44A).
T3 sequence: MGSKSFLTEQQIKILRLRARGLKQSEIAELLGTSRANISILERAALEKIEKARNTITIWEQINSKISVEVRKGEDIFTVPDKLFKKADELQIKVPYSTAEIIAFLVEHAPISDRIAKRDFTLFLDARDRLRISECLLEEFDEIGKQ
The data set can be described thus: EMSA; seemed to lose binding; EMSA: 10 mM Tris pH 7.4, 200 mM KCl, 2 mM DTT, 0.2 mM EDTA, 37 C 20 min; ITC: 10 mM Tris-HCl pH 7.4, 200 mM KCl, 1 mM TCEP, 0.2 mM EDTA, 25 C; footprint: 20 mM. The following applies: protein: recombinant; tags: C-terminal His6, non-cleavable; chain copies: 2; label: 5'-Cy5; blunt.

The values that follow come from PMC10570040.

B1: 36-bp target, unlabelled (ITC) (dsDNA)
DNA 1: CCATCTTAAAATCTTTTTGTTTACATTATACGAGGT
DNA 2: ACCTCGTATAATGTAAACAAAAAGATTTTAAGATGG
As to B1, the figures for the Kd in data set [1] and in data set [2] were 61.8 ± 20.5 nM and 948 ± 130 nM, respectively.

B2: 36-bp target, Cy5 (dsDNA)
DNA 1: CCATCTTAAAATCTTTTTGTTTACATTATACGAGGT
DNA 2: ACCTCGTATAATGTAAACAAAAAGATTTTAAGATGG
For the molecule B2, in data set [3], the binding result is “no binding”.

For orientation: Kd means the constant that tells how readily two partners part at equilibrium.
